Test results taken from patent US6861508B2, “Transcriptional intermediary factor-2” (Institut National de la Sante et de la Recherche Medicale, priority 1996, dated 2005).
Blank lines part the entries; values can stand above or below the molecule they belong to.

B2: GST-hERα(DEF) (pGEX2T-hERα(DEF), amino acids 282-595) (receptor, human, UniProt P03372 282-595, looked up)
chain: SAGDMRAANLWPSPLMIKRSKKNSLALSLTADQMVSALLDAEPPILYSEYDPTRPFSEASMMGLLTNLADRELVHMINWAKRVPGFVDLTLHDQVHLLECAWLEILMIGLVWRSMEHPGKLLFAPNLLLDRNQGKCVEGMVEIFDMLLATSSRFRMMNLQGEEFVCLKSIILLNSGVYTFLSSTLKSLEEKDHIHRVLDKITDTLIHLMAKAGLTLQQQHQRLAQLLLILSHIRHMSNKGMEHLYSMKCKNVVPLYDLLLEMLDAHRLHAPTSRGGASVEETDQSHLATAGSTSSHSLQKYYITGEAEGFPATV
notes: range 282-595; Bacterially produced; also used 32P-labelled as Far-Western probe; also called GST-ER; GST-ER(DEF); not shown: glutathione-S-transferase (GST) of pGEX2T (Pharmacia)
B3: GST-hRARα(DEF) (pGEX2T-hRARα(DEF), amino acids 153-462) (receptor, human, UniProt P10276 153-462, looked up)
chain: MSKESVRNDRNKKKKEVPKPECSESYTLTPEVGELIEKVRKAHQETFPALCQLGKYTTNNSSEQRVSLDIDLWDKFSELSTKCIIKTVEFAKQLPGFTTLTIADQITLLKAACLDILILRICTRYTPEQDTMTFSDGLTLNRTQMHNAGFGPLTDLVFAFANQLLPLEMDDAETGLLSAICLICGDRQDLEQPDRVDMLQEPLLEALKVYVRKRRPSRPHMFPKMLMKITDLRSISAKGAERVITLKMEIPGSMPPLIQEMLENSEGLDTLSGQPGGGGRDGGGLAPPPGSCSPSLSPSSNRSSPATHSP
notes: range 153-462; Bacterially produced; also called GST-RAR; GST-RARα(DEF); not shown: glutathione-S-transferase (GST) of pGEX2T (Pharmacia)

How the values were obtained:
ER = assay: CAT reporter transactivation by ER with TIF2/TIF2.1 coexpression; assay type: cell-based; settings: HeLa, Cos-1 cells
Procedure: (b) HeLa cells were cotransfected with 5 μg Vit-tk-CAT and the indicated amount of HEGO, with or without 5 μg TIF2.1 in the presence of […] E2 or OHT. CAT activity is given relative to that induced by 100 ng HEGO in presence of E2.
(d) HeLa (lanes 1-12) or Cos-1 lanes 13-18) cells were transfected with 5 fig GRE-TATA-CAT (lanes 1-6) or 1 μg MMTV-CAT (lanes 7-18) together with 1 μg hPR with or without 3 μg TIF 2 in presence or absence of […] of the indicated ligand. • (e) Cos-1 cells were cotransfected with 1 μg Vit-tk-CAT and 1 μg HEGO with or without 3 μg TIF2 in presence or absence of 10^−6 M of the indicated ligands.
TIF2-stimulation is to some extent affected by the promoter environment of the responsive gene, as the TIF2 effect on PR/5020-induced transactivation was greater for a complex (MMTV) than for a minimal (GRE-TATA) promoter, although the latter was also reproducibly stimulated (FIG. 5d).

GAL4 reporter = assay: GAL4 DBD-TIF2 fusion CAT reporter transactivation assay; assay type: cell-based
Procedure: (a) HeLa cells were cotransfected with 1 μg (17m)5-βG-CAT and 10 μg GAL(1-147) or 1,3 and 10 μg GAL(1-147)-TIF2.1, respectively.
(c) Analysis of the transcriptional activity of GAL-TIF2 fusion proteins. Cos-1 and HeLa cells were transfected with 3 lag of plasmids expressing different regions of TIF2 fised to the DNA-binding domain of the yeast transcription factor GALA together with 1 μg of the (7m)5-G-CAT reporterplasmid. CAT assays were performed as described (Bocquel, M. T. et al., Nucl Acids Res. 17:2581-2595 (1989)). Quantitative data on CAT reporter expression were obtained either by phosphoimager analysis (BAS2000, Fuji) of ^14C-labeled CAT reaction products separated by thin-layer chromatography, or using the CAT ELISA Kit (Boehringer Mannheim). In all cases, CAT activities were normalized to the β-galactosidase concentrations resulting from cotransfection of 1 μg of pCMVPGal (gift from T. Lerouge) as internal control. Fold inductions above the GAL4 DBD value are indicated. The mean and standard deviation of at least three experiments are shown. A representative Western blot, illustrating the expression levels of the GAL4-TIF2 fusion proteins, expressed from 10 μg of the corresponding expression vectors, is shown on the left.
(b) Transcriptional activation of TIF2 AF-1 mutants. Cos-1 and HeLa cells were cotransfected with 3 μg of plasmids expressing different mutants of the TIF2 AF-1 fused to the DNA-binding domain of the yeast transcription factor GAL4 together with 1 μg of the (17m)5-G-CAT reporter plasmid. Fold inductions above the activation seen with the GAL4 DBD alone are indicated. The values represent the mean of at least three experiments.
(a) Transcriptional activation by TIF2.13 and TIF2.13 mutants. Cos-1 and HeLa cells were cotransfected with 3 μg of plasmids expressing the TIF2.13 region and the indicated TIF2.13 mutants fused to the DNA-binding domain of the yeast transcription factor GALA together with 1 μg of the (17m)5-G-CAT reporter plasmid. Fold inductions above the GAL4 DBD 1-fold value are indicated. The mean and standard deviation obtained from at least four experiments are shown. The expression levels of the GAL4-TIF2.13 fusion proteins were confirmed by western blotting (data not shown).
Transient transfections of HeLa and Cos-1 cells were performed as described (Gronemeyer et al., (1987); Bocquel, M. T. et al., Nucl. Acids Res. 17:2581-2595 (1989)).

[1] = molecular target: B3; assay: GST pull-down with 35S in-vitro-translated TIF2 polypeptides (FIG. 7a-b)
[2] = molecular target: B2; assay: as above
ER, RARα and RXRα LBDs = assay: GST pull-down of TIF2 polypeptides with NR LBDs; assay type: binding; settings: in vitro, with or without 10^−6 M ligand
Procedure: (b) Mapping of the nuclear receptor-interacting domain of TIF2.
(c-d) Interaction of TIF2 NID mutants with NRs in vitro. […] For quantification of point mutant interactions, see below.
(e-f) Effect of TIF2 NID point mutations on stimulation of NR AF-2 activity. Cos-1 cells were cotransfected with 1 μg of the (17m)5-TATA-CAT reporter, 0.2 μg of GAL-hERα(EF) or GAL-mRXRα(DE), and 2.5 μg of the TIF2.1 wildtype or mutated fragments, as indicated. […] Each bar represents the mean value obtained from at least three (interaction) or at least four (transactivation) experiments, respectively; standard deviations are indicated. Note that the absolute values for TIF2.1 wildtype activity varied by ±16% when cotransfected with GAL-hERα(EF) and by ±34% when cotransfected with GAL-mRXRα(DE). In the in-vitro-interaction assays, the affinity of the TIF2.1 wildtype standard varied by less than ±25%. Expression levels of TIF2 mutants in the cells were verified by Western blot (not shown) with mouse monoclonal antibody 3Ti3F1, which is directed against an epitope outside the mutated area.
To further delineate the TIF2 NR interaction domain (NID), we studied the interaction between a series of TIF2 deletion mutants and the ER or RARα LBDs, using GST-fusion protein-based in vitro assays. In both cases, an NWD was mapped to the central region of TIF2 (amino acids 624-869 in mutant TIF2.5; see FIGS. 7a and b). No additional NWD could be identified in the N- or C-termini of TIF2 (FIGS. 7a and b; mutants TIF2.0, TIF2.2 and TIF2.7). Note that, in contrast, SRC-1, a paralogue of TIF2, apparently harbours two distinct non-contiguous NIDs located in the central and C-terminal regions (Onate, S. A. et al., Science 270:1354-1357 (1995), Yao, T. P. et al., Proc. Natl. Acad. Sci. USA 93:10626-10631 (1996); Zhu, Y. et al., Gene Epression 6:185-195 (1996)).

[3] = molecular target: T1, TIF2.1 (TIF2 amino acids 624 to 1287) (human, UniProt Q15596 624-1287); assay: Far-Western blot with 32P-labelled NR LBD probe, agonist present
T1 construct: Form without a stated tag: expression-library clone, expressed in Cos cells from pSG5, or in-vitro-translated; also called cytoplasmic TIF2.1 polypeptide
T1 sequence: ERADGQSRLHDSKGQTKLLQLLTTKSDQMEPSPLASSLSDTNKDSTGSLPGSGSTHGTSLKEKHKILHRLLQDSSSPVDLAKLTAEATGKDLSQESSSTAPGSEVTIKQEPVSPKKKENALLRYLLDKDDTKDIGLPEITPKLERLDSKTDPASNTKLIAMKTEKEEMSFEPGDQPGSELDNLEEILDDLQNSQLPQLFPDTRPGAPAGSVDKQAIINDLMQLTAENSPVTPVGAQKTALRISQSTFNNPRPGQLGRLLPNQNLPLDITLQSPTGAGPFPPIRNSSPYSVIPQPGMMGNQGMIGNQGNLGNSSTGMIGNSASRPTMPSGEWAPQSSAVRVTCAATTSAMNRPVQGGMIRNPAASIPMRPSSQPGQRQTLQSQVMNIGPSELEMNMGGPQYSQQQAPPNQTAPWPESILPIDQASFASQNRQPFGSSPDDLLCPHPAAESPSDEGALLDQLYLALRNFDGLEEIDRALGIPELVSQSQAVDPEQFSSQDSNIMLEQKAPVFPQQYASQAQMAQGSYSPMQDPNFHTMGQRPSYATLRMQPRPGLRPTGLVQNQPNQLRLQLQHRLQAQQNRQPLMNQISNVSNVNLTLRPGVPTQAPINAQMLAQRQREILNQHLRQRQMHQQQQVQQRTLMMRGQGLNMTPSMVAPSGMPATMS

[4] = molecular target: T2, transcriptional intermediary factor-2 (TIF2) (human, UniProt Q15596 1-1464); assay: Far-Western blot with E2-bound 32P-GST-ER(DEF)
T2 construct: Full length: endogenous protein of cell extracts (HeLa, MCF-7 and others), protein from transfected Cos-1 cells, or in-vitro-translated; also called 160-kDa protein

[5] = molecular target: T3, (His)6-TIF2.1, E. coli-expressed purified recombinant TIF2.1 (human, UniProt Q15596 624-1287); assay: GST interaction assay with E. coli-expressed TIF2.1, Western blot, agonist present
T3 construct: also called His-tagged TIF2.1; purified TIF2.1 protein; not shown: (His)6 tag of pET15b
T3 sequence: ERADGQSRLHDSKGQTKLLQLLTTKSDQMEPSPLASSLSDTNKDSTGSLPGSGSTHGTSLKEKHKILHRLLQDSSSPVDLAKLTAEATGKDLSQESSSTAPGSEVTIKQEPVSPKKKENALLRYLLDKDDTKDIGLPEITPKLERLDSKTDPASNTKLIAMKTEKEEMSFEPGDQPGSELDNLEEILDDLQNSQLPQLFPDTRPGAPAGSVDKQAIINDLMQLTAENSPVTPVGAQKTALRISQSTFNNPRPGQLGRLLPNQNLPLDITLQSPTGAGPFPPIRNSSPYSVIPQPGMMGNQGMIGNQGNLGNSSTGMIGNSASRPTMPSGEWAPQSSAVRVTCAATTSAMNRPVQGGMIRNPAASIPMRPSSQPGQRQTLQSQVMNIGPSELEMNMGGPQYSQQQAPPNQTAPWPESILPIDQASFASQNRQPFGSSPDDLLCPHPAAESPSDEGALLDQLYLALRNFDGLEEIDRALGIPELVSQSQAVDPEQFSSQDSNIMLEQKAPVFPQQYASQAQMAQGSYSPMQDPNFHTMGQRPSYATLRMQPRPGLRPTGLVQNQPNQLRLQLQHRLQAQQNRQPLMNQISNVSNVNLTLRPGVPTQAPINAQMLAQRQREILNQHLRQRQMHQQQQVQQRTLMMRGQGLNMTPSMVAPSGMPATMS

T2 sequence (Q15596 whole entry P1420S): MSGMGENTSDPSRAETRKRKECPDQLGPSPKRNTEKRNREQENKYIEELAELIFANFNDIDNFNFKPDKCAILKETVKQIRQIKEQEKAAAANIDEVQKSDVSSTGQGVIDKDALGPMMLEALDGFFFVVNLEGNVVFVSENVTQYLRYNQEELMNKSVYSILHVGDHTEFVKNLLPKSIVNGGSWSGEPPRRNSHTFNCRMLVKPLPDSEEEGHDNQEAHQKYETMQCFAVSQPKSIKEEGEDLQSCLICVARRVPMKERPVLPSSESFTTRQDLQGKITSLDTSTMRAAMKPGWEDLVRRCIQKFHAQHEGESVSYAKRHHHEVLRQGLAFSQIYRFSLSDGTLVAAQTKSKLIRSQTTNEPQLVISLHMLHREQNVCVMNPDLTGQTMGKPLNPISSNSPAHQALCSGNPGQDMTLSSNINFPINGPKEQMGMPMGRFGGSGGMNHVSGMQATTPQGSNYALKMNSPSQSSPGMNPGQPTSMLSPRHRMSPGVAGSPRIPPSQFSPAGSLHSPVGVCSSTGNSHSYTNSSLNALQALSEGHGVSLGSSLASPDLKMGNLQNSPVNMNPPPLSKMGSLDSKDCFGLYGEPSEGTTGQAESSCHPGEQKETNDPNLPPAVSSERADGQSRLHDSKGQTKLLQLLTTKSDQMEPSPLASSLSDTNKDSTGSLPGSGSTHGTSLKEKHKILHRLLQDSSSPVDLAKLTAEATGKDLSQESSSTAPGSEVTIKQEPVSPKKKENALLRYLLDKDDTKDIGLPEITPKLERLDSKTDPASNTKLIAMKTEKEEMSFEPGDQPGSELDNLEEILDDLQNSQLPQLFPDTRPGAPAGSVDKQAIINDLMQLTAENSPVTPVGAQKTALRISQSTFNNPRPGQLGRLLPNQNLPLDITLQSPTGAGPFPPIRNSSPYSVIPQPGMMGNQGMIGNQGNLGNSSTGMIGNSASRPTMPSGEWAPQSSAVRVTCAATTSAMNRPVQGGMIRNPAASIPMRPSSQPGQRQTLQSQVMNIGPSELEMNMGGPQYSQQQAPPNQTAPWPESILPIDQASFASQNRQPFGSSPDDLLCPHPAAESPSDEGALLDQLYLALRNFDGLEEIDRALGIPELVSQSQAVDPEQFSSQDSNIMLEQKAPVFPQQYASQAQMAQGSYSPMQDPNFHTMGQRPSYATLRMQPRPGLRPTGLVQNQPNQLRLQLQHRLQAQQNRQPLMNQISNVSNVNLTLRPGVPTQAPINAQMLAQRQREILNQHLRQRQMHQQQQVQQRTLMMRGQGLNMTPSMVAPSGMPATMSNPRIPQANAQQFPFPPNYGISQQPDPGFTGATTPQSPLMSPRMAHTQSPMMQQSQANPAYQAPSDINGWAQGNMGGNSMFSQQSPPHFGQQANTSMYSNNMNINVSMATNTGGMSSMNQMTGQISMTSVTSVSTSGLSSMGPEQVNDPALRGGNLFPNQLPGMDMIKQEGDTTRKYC

Molecule: CC/C(=C(\c1ccc(O)cc1)c1ccc(OCCN(C)C)cc1)c1ccccc1 [hydroxytamoxifen]
- stimulation by TIF2.1 of transactivation by antagonist-bound ER (ER): did not lead to any stimulation

- binding result [1]: no binding
- binding result [2]: no binding
- binding to NRs (ER, RARα LBDs) (ER, RARα and RXRα LBDs): cannot bind NRs
B1: TIF2.8 (TIF2 amino acids 1010-1179) (other)
chain: GPSELEMNMGGPQYSQQQAPPNQTAPWPESILPIDQASFASQNRQPFGSSPDDLLCPHPAAESPSDEGALLDQLYLALRNFDGLEEIDRALGIPELVSQSQAVDPEQFSSQDSNIMLEQKAPVFPQQYASQAQMAQGSYSPMQDPNFHTMGQRPSYATLRMQPRPGLRPT
notes: In-vitro-translated; also called minimal AD1
- transcriptional activation of GAL4 reporter by GAL4 DBD fusion (GAL4 reporter; Cos-1 and/or HeLa cells): able to activate transcription
- increased transactivation relative to parent fragment (GAL4 reporter; Cos-1 cells): 2 fold
- increased transactivation relative to parent fragment (GAL4 reporter; HeLa cells): 10 fold

Molecule: B2
- binding result [3]: binds
- binding result [4]: binds

Molecule: B3
- binding result [3]: binds
- binding result [5]: binds
